The values that follow come from publication PMC7190841 (Scientific Reports, 2020).

pEC50: −log10 of the molar value.

As a reminder, the pEC50 is −log10 of the EC50, conventionally taken in molar units. Low readings indicate a high EC50, high ones a low EC50.

The target of one series is T1, P-IR(Tyr1158) (Homo sapiens, UniProt P06213).
T1 construct: expressed in transfected cells; host or cells: rat L6 myoblast cells (L6hIR, generated at Novo Nordisk)
Kind of series: Activation of IR in L6hIR cells in vitro, sandwich ELISA. In kind it is cell-based. The note with it: ligands 0-1000 nM for 30 min, 0.1% human serum albumin, three replicates. For orientation: ELISA stands for enzyme-linked immunosorbent assay.

The nature of series [1]: Pharmacokinetics after s.c. injection in mice. It is filed as in vivo. To be noted: mouse; for t1/2 / Cmax: mean [95% CI]; for t1/2 / tmax / Cmax: n = 15; for tmax: median; for Cmax: sparse sampling 0-240 min, population PK and non-compartment analysis.
Protocol: Pharmacokinetic (PK) parameters were estimated from the two experiments with sparse sampling (three blood samples per mouse) for 0–240 min. Initially, population PK models[25] for each compound was developed in Nonmem (Icon, Dublin, Ireland) and approximately 60 individual post-hoc concentration-time data points per mouse was subjected to non-compartment analysis.
A short description of series [2]: Lowering of blood glucose in mice with L6hIR xenografts. It is filed as in vivo, mouse. To be noted: 300 or 600 nmol/kg s.c., experiment D.
Protocol: Blood glucose and plasma concentrations of test compounds and endogenous mouse insulin were assessed as described previously[10].
Series [3] concerns IR and IGF-1R in L6hIR xenografts. Kind of series: Acute activation of IR and IGF-1R in L6hIR xenografts in vivo. Further details: species or system mouse. To be noted: experiment A; 300 nmol/kg s.c., single treatment, euthanized 20 min later; n = 7-8.
Protocol: Male BALB/c nude mice (CAnN.Cg-Foxn1 nu/Crl) were purchased from Charles River (Charles River Laboratories Germany, Sulzfeld, Germany) at age of seven weeks and housed five mice per cage in individually ventilated Techniplast GR 900 Seal Safe Plus cages, with unrestricted access to a complete pelleted rodent diet (Altromin 1324, Brogården, Hørsholm, Denmark) and tap water (non-chlorinated, non-acidified). In the animal room the temperature was 18–24 °C, with relative humidity at 30–70%, air change 8–15 times/h and a light-dark cycle of 12/12 h. All mice were acclimatized for 10 days before experiments were started. On day 0, all mice were injected s.c. in the right flank with 2.5 million L6hIR (six experiments) or L6 cells (one experiment), suspended in 0.1 ml PBS. On the same day treatment with vehicle or test compounds was started and continued either once or twice daily until the end of the experiment (Supplementary Table S5). […]
L6hIR cell xenograft samples were lysed in cell extraction buffer as described previously[10]. Protein concentration of cell and xenograft lysates was assessed with Pierce BCA protein assay kit (Thermo Fisher Scientific, Hvidovre, Denmark), according to the manufacturer’s instructions.
Another series deals with H4IIE cells. Briefly: Mitogenic potency from thymidine-incorporation in H4IIE cells. It is filed as cell-based, rat. The note with it: weighted mean [95% CI], at least three independent experiments.
The test system of another series is L6hIR cells. Briefly: Mitogenic potency from thymidine-incorporation in L6hIR cells. It is filed as cell-based, rat. The note with it: weighted mean [95% CI], at least three independent experiments.
The mark [4] stands for this setting: s.c., range over doses of 300 and 600 nmol/kg of HI and IX10.

T1 sequence (P06213 28-1370 isoform P06213-2 limits assumed): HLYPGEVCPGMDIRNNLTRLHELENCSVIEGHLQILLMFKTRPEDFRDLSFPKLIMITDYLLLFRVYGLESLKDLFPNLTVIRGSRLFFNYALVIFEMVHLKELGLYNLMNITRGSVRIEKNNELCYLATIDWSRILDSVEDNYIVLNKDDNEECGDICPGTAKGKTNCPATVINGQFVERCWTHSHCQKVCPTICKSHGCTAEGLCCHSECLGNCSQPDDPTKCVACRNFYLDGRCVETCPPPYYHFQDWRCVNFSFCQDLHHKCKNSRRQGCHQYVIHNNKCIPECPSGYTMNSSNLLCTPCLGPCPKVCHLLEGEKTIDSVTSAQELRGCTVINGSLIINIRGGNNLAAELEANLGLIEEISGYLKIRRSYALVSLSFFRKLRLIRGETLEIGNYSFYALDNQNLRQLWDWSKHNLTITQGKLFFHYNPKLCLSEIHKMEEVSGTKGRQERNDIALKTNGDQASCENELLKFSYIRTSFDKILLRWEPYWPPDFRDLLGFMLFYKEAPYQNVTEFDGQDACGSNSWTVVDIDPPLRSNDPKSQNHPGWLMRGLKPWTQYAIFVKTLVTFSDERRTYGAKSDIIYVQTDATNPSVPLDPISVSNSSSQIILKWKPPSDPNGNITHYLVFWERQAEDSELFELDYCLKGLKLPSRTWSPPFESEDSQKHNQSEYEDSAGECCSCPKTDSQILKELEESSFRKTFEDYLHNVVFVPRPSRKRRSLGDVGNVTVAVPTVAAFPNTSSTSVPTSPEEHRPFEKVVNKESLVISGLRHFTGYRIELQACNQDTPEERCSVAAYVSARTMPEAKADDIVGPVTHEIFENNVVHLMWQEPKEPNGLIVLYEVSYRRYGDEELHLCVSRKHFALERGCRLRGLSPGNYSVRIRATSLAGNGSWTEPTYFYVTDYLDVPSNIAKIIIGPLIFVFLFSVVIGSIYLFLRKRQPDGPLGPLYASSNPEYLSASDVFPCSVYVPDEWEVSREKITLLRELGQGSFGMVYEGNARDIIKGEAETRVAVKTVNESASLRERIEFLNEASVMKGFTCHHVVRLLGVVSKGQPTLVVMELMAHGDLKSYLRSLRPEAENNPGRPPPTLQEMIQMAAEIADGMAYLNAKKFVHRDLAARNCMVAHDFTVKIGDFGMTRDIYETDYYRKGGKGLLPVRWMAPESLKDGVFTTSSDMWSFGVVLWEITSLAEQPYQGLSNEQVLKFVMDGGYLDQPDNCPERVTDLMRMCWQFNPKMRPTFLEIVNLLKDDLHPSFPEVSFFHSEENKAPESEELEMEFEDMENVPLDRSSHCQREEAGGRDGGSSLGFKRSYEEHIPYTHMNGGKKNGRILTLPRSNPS
T1 sequence (P06213 763-1382 partner limits assumed): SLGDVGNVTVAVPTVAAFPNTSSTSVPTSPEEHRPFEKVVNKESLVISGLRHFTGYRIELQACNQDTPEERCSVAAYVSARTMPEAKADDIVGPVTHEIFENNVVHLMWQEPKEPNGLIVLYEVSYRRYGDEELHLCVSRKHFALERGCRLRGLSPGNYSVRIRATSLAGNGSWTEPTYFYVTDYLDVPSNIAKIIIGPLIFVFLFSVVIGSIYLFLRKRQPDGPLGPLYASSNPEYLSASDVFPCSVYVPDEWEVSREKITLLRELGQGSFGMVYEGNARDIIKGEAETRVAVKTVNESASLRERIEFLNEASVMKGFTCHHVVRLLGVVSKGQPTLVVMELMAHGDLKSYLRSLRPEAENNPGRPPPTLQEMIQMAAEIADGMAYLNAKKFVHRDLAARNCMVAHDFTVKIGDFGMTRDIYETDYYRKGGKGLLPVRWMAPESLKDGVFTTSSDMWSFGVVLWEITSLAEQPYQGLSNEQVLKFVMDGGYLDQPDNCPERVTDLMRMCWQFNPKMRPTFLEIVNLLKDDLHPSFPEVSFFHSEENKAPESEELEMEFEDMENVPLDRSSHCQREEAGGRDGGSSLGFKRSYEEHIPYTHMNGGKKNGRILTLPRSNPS
Protocol for H4IIE cells: (§1) Fitting of dose-response curves describing thymidine-incorporation in vitro and activation of IR and IGF-1R, including calculation of EC50 values, were conducted with GraphPad Prism (GraphPad Software Inc., La Jolla, CA, USA).
H4IIE cells (ATCC, Manassas, VA, USA) were cultured in minimum essential medium (MEM) (Gibco) supplemented with 10% (v/v) FBS, 100 µg/ml penicillin and 100 U/ml streptomycin, 1% (v/v) MEM non-essential amino acids and 1% (v/v) pyruvate (all from Gibco).
Protocol for P-IR(Tyr1158): L6hIR cells were seeded in 12-well plates and grown until 90–100% confluence in DMEM (Gibco, Invitrogen, Carlsbad, CA, USA). Cells were stimulated with increasing concentrations of ligands (0–1000 nM) for 30 min in DMEM (Gibco) medium containing 0.1% human serum albumin. Subsequently, cells were washed three times in ice-cold phosphate buffered saline (PBS) and snap-frozen by pouring liquid nitrogen into the wells. Cells were lysed in 100 µL lysis buffer (cell extraction buffer from BioSource, Invitrogen, Carlsbad, CA, USA; supplemented with 1 mmol/l 4-(2-aminoethyl)benzenesulfonyl fluoride hydrochloride, and protease inhibitor cocktail from Sigma-Aldrich).
as §1

The substance “IGF-1: human IGF-1, reference ligand in receptor activation assays” had a pEC50 with P-IR(Tyr1158) of 7.59.

In the case of human insulin [HI], in series [1] (300 nmol/kg s.c., experiment H), the t1/2 was 96 [85 ; 107] min, the tmax is listed as 11 min and the Cmax is 725.7 [654.0 ; 797.4] nmol/l. In series [1] (600 nmol/kg s.c., experiment I), the t1/2 was 52 [48 ; 56] min, the tmax is 17 min and the Cmax is 812.5 [761.7 ; 863.4] nmol/l. For the same substance, in series [1] (setting [4]), the elimination half-life lay in the range of 60 to 90 min, the maximum plasma concentration is 500 to 850 nmol/L and the “time of maximum plasma concentration after s.c. injection” value was 11 to 17 min. Further, the “Duration of decreased blood glucose” value in series [2] fell in the range of 4 to 6 h. For the same substance, the “Activation of IR and IGF-1R in L6hIR xenografts in vivo” value in series [3] was “acute activation of IR and IGF-1R”. Also, in the series on H4IIE cells, the “mitogenic potency H4IIE cells (% of HI)” value is given as 100 % of HI. Further, in the series on L6hIR cells, the “mitogenic potency L6hIR cells (% of HI)” value is listed as 100 % of HI.
